# According to IntAct's records for PubMed 25502805:
# B1: Kelch-like protein 3 (Homo sapiens), Q9UH77 (parent)
# chain: MEGESVKLSSQTLIQAGDDEKNQRTITVNPAHMGKAFKVMNELRSKQLLCDVMIVAEDVEIEAHRVVLAACSPYFCAMFTGDMSESKAKKIEIKDVDGQTLSKLIDYIYTAEIEVTEENVQVLLPAASLLQLMDVRQNCCDFLQSQLHPTNCLGIRAFADVHTCTDLLQQANAYAEQHFPEVMLGEEFLSLSLDQVCSLISSDKLTVSSEEKVFEAVISWINYEKETRLEHMAKLMEHVRLPLLPRDYLVQTVEEEALIKNNNTCKDFLIEAMKYHLLPLDQRLLIKNPRTKPRTPVSLPKVMIVVGGQAPKAIRSVECYDFEEDRWDQIAELPSRRCRAGVVFMAGHVYAVGGFNGSLRVRTVDVYDGVKDQWTSIASMQERRSTLGAAVLNDLLYAVGGFDGSTGLASVEAYSYKTNEWFFVAPMNTRRSSVGVGVVEGKLYAVGGYDGASRQCLSTVEQYNPATNEWIYVADMSTRRSGAGVGVLSGQLYATGGHDGPLVRKSVEVYDPGTNTWKQVADMNMCRRNAGVCAVNGLLYVVGGDDGSCNLASVEYYNPVTDKWTLLPTNMSTGRSYAGVAVIHKSL
# B2: Peroxisomal biogenesis factor 3 (Homo sapiens), P56589 (parent)
# chain: MLRSVWNFLKRHKKKCIFLGTVLGGVYILGKYGQKKIREIQEREAAEYIAQARRQYHFESNQRTCNMTVLSMLPTLREALMQQLNSESLTALLKNRPSNKLEIWEDLKIISFTRSTVAVYSTCMLVVLLRVQLNIIGGYIYLDNAAVGKNGTTILAPPDVQQQYLSSIQHLLGDGLTELITVIKQAVQKVLGSVSLKHSLSLLDLEQKLKEIRNLVEQHKSSSWINKDGSKPLLCHYMMPDEETPLAVQACGLSPRDITTIKLLNETRDMLESPDFSTVLNTCLNRGFSRLLDNMAEFFRPTEQDLQHGNSMNSLSSVSLPLAKIIPIVNGQIHSVCSETPSHFVQDLLTMEQVKDFAANVYEAFSTPQQLEK
# partner: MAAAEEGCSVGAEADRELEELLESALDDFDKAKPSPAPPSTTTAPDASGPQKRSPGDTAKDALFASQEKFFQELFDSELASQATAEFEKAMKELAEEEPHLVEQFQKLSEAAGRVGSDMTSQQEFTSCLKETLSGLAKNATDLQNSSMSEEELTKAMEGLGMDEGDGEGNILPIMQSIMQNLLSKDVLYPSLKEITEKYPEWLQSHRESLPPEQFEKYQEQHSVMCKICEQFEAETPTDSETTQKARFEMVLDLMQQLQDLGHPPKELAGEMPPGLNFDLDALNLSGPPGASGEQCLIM
# B3: pre-mRNA splicing regulator USH1G (Homo sapiens), Q495M9 (parent)
# chain: MNDQYHRAARDGYLELLKEATRKELNAPDEDGMTPTLWAAYHGNLESLRLIVSRGGDPDKCDIWGNTPLHLAASNGHLHCLSFLVSFGANIWCLDNDYHTPLDMAAMKGHMECVRYLDSIAAKQSSLNPKLVGKLKDKAFREAERRIRECAKLQRRHHERMERRYRRELAERSDTLSFSSLTSSTLSRRLQHLALGSHLPYSQATLHGTARGKTKMQKKLERRKQGGEGTFKVSEDGRKSARSLSGLQLGSDVMFVRQGTYANPKEWGRAPLRDMFLSDEDSVSRATLAAEPAHSEVSTDSGHDSLFTRPGLGTMVFRRNYLSSGLHGLGREDGGLDGVGAPRGRLQSSPSLDDDSLGSANSLQDRSCGEELPWDELDLGLDEDLEPETSPLETFLASLHMEDFAALLRQEKIDLEALMLCSDLDLRSISVPLGPRKKILGAVRRRRQAMERPPALEDTEL
# partner: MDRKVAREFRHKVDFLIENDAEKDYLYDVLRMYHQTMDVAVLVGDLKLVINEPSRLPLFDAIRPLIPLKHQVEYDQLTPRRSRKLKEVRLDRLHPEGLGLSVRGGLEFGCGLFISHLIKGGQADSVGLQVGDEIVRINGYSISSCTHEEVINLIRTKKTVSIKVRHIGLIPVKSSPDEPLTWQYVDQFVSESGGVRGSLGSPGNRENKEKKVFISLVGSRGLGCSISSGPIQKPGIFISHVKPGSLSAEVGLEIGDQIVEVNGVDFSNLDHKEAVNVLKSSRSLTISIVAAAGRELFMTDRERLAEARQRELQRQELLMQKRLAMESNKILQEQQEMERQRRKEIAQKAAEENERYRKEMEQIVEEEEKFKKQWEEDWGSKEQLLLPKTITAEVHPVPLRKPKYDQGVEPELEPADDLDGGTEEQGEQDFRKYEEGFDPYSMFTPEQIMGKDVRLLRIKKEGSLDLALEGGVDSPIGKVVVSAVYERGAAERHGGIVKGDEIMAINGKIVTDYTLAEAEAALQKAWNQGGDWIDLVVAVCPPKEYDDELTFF
# Variants of: B1
# Conditions: with cul3_human CUL3, Q13618
row,Variant,effect of a mutation on the interaction
1,R228G,disrupting interaction strength
2,C164F,disrupting interaction strength

# Variants of: B2
# Conditions: with pex19_human PEX19, P40855
row,Variant,effect of a mutation on the interaction
1,D347Y,with no effect

# Variants of: B3
# Conditions: with ush1c_human USH1C
row,Variant,effect of a mutation on the interaction
1,L48P,with no effect
2,L16V,with no effect
